Measurements reported in patent publication US20210170043A1 (Novartis, published 2021).
Numbering of substitutions follows the chain as printed.

T1: cynomolgus monkey DC-SIGN (full length, expressed on CHO cells) (cynomolgus monkey, UniProt Q95J96 1-403 (rhesus entry))
T1 construct: also called cyno DC-SIGN; cyno DC-SIGN CHO
T1 sequence: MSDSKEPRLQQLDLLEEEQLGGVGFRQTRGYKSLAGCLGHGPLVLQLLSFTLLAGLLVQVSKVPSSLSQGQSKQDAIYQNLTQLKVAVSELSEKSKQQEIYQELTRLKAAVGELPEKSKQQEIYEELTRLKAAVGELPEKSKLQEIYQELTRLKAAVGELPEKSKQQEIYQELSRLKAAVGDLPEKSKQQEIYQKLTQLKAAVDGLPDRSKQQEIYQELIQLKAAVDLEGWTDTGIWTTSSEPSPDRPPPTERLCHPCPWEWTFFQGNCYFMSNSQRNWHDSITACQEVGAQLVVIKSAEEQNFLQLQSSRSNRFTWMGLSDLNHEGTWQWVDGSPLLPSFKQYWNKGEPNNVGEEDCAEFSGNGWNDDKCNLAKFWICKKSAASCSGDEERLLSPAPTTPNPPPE

T2: human DC-SIGN (full length, expressed on cells) (human, UniProt Q9NNX6 1-404)
T2 construct: Also used for DC-SIGN on human monocyte-derived cells and on cells of human DC-SIGN transgenic mice in the functional rows; also called CD209; human DC-SIGN CHO
T2 sequence: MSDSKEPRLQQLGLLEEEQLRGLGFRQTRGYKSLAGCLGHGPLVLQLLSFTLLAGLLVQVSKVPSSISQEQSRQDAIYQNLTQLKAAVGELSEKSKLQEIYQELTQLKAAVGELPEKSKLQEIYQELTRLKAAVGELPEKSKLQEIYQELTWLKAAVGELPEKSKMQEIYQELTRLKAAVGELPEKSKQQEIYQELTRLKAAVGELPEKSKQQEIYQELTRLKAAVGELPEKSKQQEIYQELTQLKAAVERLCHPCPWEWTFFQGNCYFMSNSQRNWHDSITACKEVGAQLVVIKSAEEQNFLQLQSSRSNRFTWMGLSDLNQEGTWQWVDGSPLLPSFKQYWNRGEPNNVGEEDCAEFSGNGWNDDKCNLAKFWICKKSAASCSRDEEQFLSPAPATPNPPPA

T3: DC-SIGN Carbohydrate Recognition Domain (CRD), His-tagged (human, UniProt Q9NNX6 250-404)
T3 construct: also called DC-SIGN CRD; not shown: His tag used for capture
T3 sequence: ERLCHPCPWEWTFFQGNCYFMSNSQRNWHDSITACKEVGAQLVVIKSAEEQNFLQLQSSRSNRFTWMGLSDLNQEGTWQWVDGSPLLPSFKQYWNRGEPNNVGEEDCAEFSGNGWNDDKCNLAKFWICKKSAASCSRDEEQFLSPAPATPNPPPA

B1: 956E02 Parental (antibody, human IgG1, kappa, V domains shown)
VH: QVQLVQSGAEVKKPGASVKVSCKASGYTFTGYYINWVRQAPGQGLEWMGWINPNSGDTNYAQKFQGRVTMTRDPSISTAYMELSRLRSDDTAVYYCARENSGYGKLFDYWGQGTLVTVSS
VL: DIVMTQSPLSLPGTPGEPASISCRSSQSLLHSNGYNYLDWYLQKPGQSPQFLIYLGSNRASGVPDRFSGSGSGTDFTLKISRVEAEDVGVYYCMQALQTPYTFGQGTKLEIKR
B2: 2B2 Chimeric (antibody, V domains shown)
VH: EVQLQQSGAELVRPGSSVKMSCKTSGYTFTNYGINWVKQRPGQGLEWIGYIYIGNDYTEYNERFKGKATLTSDTSSSTAHIQLNSLTSEDSAIYFCARLYYGSSLYSYAMDYWGQGTSVTVSS
VL: DIVMTQAAPSVSVTPGESVSISCRSSKSLLHSSGNTYLYWFLQRPGQSPQLLISRMSNLASGVPDRFSGSGSGTAFTLRISRVEAEDVGVYYCMQHLEYPYTFGGGTKLELKR
notes: Murine variable regions on human constant regions
B3: 952P16 Parental (antibody, V domains shown)
VH: QVTLRESGPALVKPTQTLTLTCTFSGFSLSTSGVSVSWIRQPPGKALEWLALIDWDDDKYYSTSLKTRLTISKDTSKNQVVLTMTNMDPVDTATYYCARTPSGSYGRYFDLWGRGTLVTVSS
VL: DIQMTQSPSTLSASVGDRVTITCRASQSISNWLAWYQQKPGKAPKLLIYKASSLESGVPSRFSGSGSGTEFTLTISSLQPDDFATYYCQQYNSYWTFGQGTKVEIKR
B4: 952G04 Parental (antibody, V domains shown)
VH: B3 VH with S37T, T70A
VL: DIQMTQSPSTLSASVGDRVTITCRASQSISTWLAWYQQKPGKAPKLLIYEASSLESGVPSRFSGSGSGTEFTLTISSLQPDDFATYYCQQYNSYWTFGQGTKVEIKR
B5: 958N05 Parental (antibody, V domains shown)
VH: B3 VH with V34I
VL: B4 VL with M4L, T31N, E50K, S63T
B6: 960K03 Parental (antibody, V domains shown)
VH: QVTLRESGPALVKPTQTLTLTCTFSGFSLSTGGMCVSWIRQPPGKALEWLALIDWDDDKYYSTSLKTRLTISKDTSKNQLVLTMTNMDPVDTATYYCARAHSGSYFDFWGQGTLVTVSS
VL: B4 VL with S28R, T31N, E50K, Y91F
B7: 942K11 Parental (antibody, human IgG1, kappa, V domains shown)
VH: QVQLQESGPGLVKPSETLSLTCTVSGGSISSYYWTWIRQPAGKGLEWIGRVFTSESTNYNPSLKNRVTMSVDTSKNQFSLRLNSVTAADTAMYYCARDRGTYLGGFDPWGQGTLVTVSS
VL: not shown
B8: 906C18 Parental (antibody, V domains shown)
VH: EVQLVESGGGLVQPGGSLRLSCAASGFTFNNYWMNWVRQAPGKGLEWVANIRQDGSEKYYVDSVKGRFTISRDNAKNSLFLQMNSLRAEDTAVYYCARERAYCSTTSCPDYSNDYWGQGTLVTVSS
VL: EIVMTQSPATLSVSPGERATLSCRASQTINNNLAWFQQKPGQTPRLLIYGASTGATGIPARFSGSGSGTEFTLTISSLQSEDFAVYYCQQYNNWPRGLTFGGGTKVEIKR
B9: 914M09 Parental (antibody, human IgG1, kappa, V domains shown)
VH: QVQLQESGPGLVKPSETLSLTCAVSGGSISSYYWNLIRQPAGKGLEWIGRIYTSGSTNYNPSLKSRVTMSVDTSKNQFSLKLSSVTAADTAVYYCARDSGGFYYYYGMDVWGQGTTVTVSS
VL: DIQLTQSPSFLSASVGDRVTITCRASQGISSYLAWYQQKPGKAPKLLIYAASTLQGGVPSRFSGSGSGTEFTLTISSLQPEDFATYHCQQLNSYPWTFGQGTKVEIKR
B10: 2B2 Hz (antibody, V domains shown)
VH: QVQLVQSGAEVKKPGASVKVSCKASGYTFTNYGINWVRQAPGQRLEWMGYIYIGNDYTEYNERFKGRVTITSDTSASTAYMELSSLRSEDTAVYYCARLYYGSSLYSYAMDYWGQGTTVTVSS
VL: DIVMTQSPLSLPVTPGEPASISCRSSKSLLHSSGNTYLYWFLQKPGQSPQLLISRMSNLASGVPDRFSGSGSGTDFTLKISRVEAEDVGVYYCMQHLEYPYTFGGGTKVEIKR
notes: also called humanized 2B2
B11: 550E03 Parental (antibody, V domains shown)
VH: QVTLRESGPALVKPTQTLTLTCTFSGFSLSTSGMSVSWIRQPPGKALEWLALIDWDDDKYYSTSLKTRLTISKDTSKNQVVLTMTNMDPVDTATYYCARMALRHAFDAWGQGTMVTVSS
VL: QSVLTQPPSVSGAPGQRVTISCTGSSSNIGAGYDVHWYQQLPGTAPKLLIYVNSNRPSGVPDRFSGSKSGTSASLAITGLQAEDEADYYCQSYDSSLSGWVFGGGTKLTVLG
notes: also called 550Ee03
B12: 2B2 (parental antibody) (antibody, V domains shown)
VH: B2 VH
VL: DIVMTQAAPSVSVTPGESVSISCRSSKSLLHSSGNTYLYWFLQRPGQSPQLLISRMSNLASGVPDRFSGSGSGTAFTLRISRVEAEDVGVYYCMQHLEYPYTFGGGTKLELK
notes: also called antibody 2B2

target: T1, cynomolgus monkey DC-SIGN (full length, …); assay: flow cytometry, IgG titrated on cyno DC-SIGN CHO cells

| EC50 [µg/mL] | Binder |
| --- | --- |
| 0.13 | B1 |
| 0.32 | B2 |
| 0.02 | B3 |
| 0.19 | B4 |
| 0.08 | B5 |
| 0.02 | B6 |
| 11.6 | B7 |
| 0.77 | B8 |
| 0.08 | B9 |
| 0.04 | B10 |
| 0.39 | B11 |

target: T2, human DC-SIGN (full length, expressed …); assay: flow cytometry, IgG titrated on human DC-SIGN CHO cells

| EC50 [µg/mL] | Binder |
| --- | --- |
| 0.12 | B1 |
| 0.23 | B2 |
| 0.06 | B3 |
| 0.11 | B4 |
| 0.07 | B5 |
| 0.1 | B6 |
| 0.2 | B7 |
| 0.21 | B8 |
| 0.1 | B9 |
| 0.06 | B10 |
| 0.26 | B11 |

target: T2, human DC-SIGN (full length, expressed …); assay: flow cytometry, IgG titrated on human DC-SIGN K562 cells

| EC50 [µg/mL] | Binder |
| --- | --- |
| 0.28 | B2 |
| 0.04 | B3 |
| 0.26 | B4 |
| 0.05 | B5 |
| 1.72 | B8 |
| 0.25 | B9 |
| 0.27 | B10 |
| 1.5 | B11 |

target: T3, DC-SIGN Carbohydrate Recognition Domain …; assay: SPR (Biacore 8K), antibody captured on anti-human IgG Fc chip, DC-SIGN CRD as analyte

| Kd [nM] | Binder |
| --- | --- |
| 999 | B1 |
| 32 | B12 |
| 395 | B3 |
| 346 | B4 |
| 174 | B5 |
| 955 | B6 |
| 1260 | B7 |
| 1950 | B8 |
| 830 | B9 |
| 523 | B11 |

target: T3, DC-SIGN Carbohydrate Recognition Domain …; assay: SPR (Biacore 8K), His-tagged DC-SIGN CRD captured at high density on chip, antibody as analyte

| Kd [nM] | Binder |
| --- | --- |
| 13 | B1 |
| 0.5 | B12 |
| 3.8 | B3 |
| 3.7 | B4 |
| 1.7 | B5 |
| 0.8 | B6 |
| 180 | B7 |
| 16 | B8 |
| 10 | B9 |
| 5.8 | B11 |
